The subject of test [1] is MCF7 cells. The experiment in a line: Proliferation assay (Cell Titer-Glo) with anti-IGFR1 antibody and a chemotherapeutic agent, MCF7 cells. The format is cell-based. The method, then: (§1) The ability of cells in culture to proliferate when exposed to varying concentrations of the 19D12/15H12 wild-type or 19D12/15H12 LCF/HCA anti-IGFR1 antibody and either paclitaxel, gefitinib, lonafarnib 4-hydroxy tamoxifen or doxorubicin was evaluated in this example.
(§2) Cell Preparation. […] The cells were trypsinized, counted and resuspended at a concentration of 25000 cells/ml in 10% HI-FBS (heat-inactivated fetal bovine serum) RPMI medium containing NEAA (non-essential amino acids), L-Glu, MEM Vitamins and PS. 100 ul of cell suspension (2500 cells) was added to each well of a BD Falcon 96 well black, clear bottom TC treated plate. The cells were allowed to attach and spread overnight at 37° C. The 10% RPMI solution was replaced with 100 μl RPMI containing 2% HI-FBS containing NEAA, L-Glu, MEM Vitamins and PS.
(§3) Solution Preparation. All assay reagents were prepared in RPMI containing 2% HI-FBS at 20× concentration and serial diluted for a total of 10 test concentrations per treatment. Every test point was prepared in triplicate on separate assay plates.
(§4) Reagent 1 and 19D12/15H12 or 19D12/15H12 LCF/HCA were set up individually as dose responses as well as in combination with each other. Cell proliferation was measured on Day4.
(§5) Assay. Cell proliferation was measured using the Promega Cell Titer-Glo Luminescent Cell Viability Assay (Promega Corp.; Madison, Wis.). This assay provided a method for determining the number of viable cells in culture based on quantitation of ATP in the culture, which indicates the presence of metabolically active cells.
(§6) The assay reagents and assay plates were equilibrated to room temperature and prepared immediately before addition to the assay plates. One volume of assay reagent was added to each well of the assay plate and shaken on an orbital platform for at least ten minutes to allow for equilibration of the ATP reaction and to ensure total lysis of all cells in the assay plate. […] Luminescence was detected on Wallac 420 Plate Reader with stacker.
(§7) The units in the tables (proliferation index) are arbitrary and are proportional to the number of viable cells observed in the culture under each respective condition.
(§8) In Tables 2-6, “ug” indicates micrograms and “uM” indicates micromolar.

The test system of test [2] is H322 NSCLC cells. The experiment in a line: Proliferation assay (Cell Titer-Glo) with anti-IGFR1 antibody and a chemotherapeutic agent, H322 NSCLC cells. The format is cell-based, human. As to conditions: H322, Day4, replicates. The method, then: as §1, §2, §3, §4, §5, §6, §7, §8

We go through 3 molecules from US8017735B2, “Anti-IGFR1 antibody therapeutic combinations” (Schering Corporation, priority 2003, dated 2011).

Values joined by “and” are separate entries in the source; they are usually repeats but may differ in a detail not shown here. Equal entries are not always repeated.

Turning to `CC/C(=C(\c1ccc(O)cc1)c1ccc(OCCN(C)C)cc1)c1ccccc1` [4-hydroxy tamoxifen, 4-hydroxytamoxifen, reference compound], in test [1] (4-hydroxy tamoxifen alone 20000 ng/mL), the proliferation index is 80 and 72 and 87 and 71 and 61 and 67 and 70 and 92.

For the molecule `COc1cc2ncnc(Nc3ccc(F)c(Cl)c3)c2cc1OCCCN1CCOCC1` [Iressa, 4-(3-chloro-4-fluoroanilino)-7-methoxy-6-(3-morpholinopropoxy)quinazoline], the proliferation index in test [2] (Iressa alone 0.0512 nM) is 59448 and 76032 and 61018 and 59690 and 63252 and 63688 and 60730 and 74464 and 65802; in test [2] (Iressa alone 0.256 nM), 56752 and 73246 and 58760 and 59474 and 57314 and 58384 and 59448 and 66806 and 64854; in test [2] (Iressa alone 32 nM) it was 45712 and 58272 and 41264 and 40992 and 44162 and 42054 and 43124 and 45062 and 41426; in test [2] (Iressa alone 160 nM) it was 35044 and 43832 and 32072 and 32728 and 33532 and 35078 and 34864 and 36144 and 34946; in test [2] (Iressa alone 4000 nM) it was 27738 and 27810 and 24546 and 24376 and 26742 and 28156 and 24528 and 28442 and 27026; in test [2] (Iressa alone 20000 nM), 10818 and 11294 and 10994 and 9734.

B1: 19D12/15H12: 19D12/15H12 wild-type anti-IGFR1 antibody (antibody, listed as Homo sapiens, V domains shown)
VL: MSPSQLIGFLLLWVPASRGEIVLTQSPGTLSVSPGERATLSCRASQSIGSSLHWYQQKPGQAPRLLIKYASQSLSGIPDRFSGSGSGTDFTLTISRLEPEDFAVYYCHQSSRLPHTFGQGTKVEIKRT
VH: MEFGLSWVFLVAILKGVQCEVQLVQSGGGLVKPGGSLRLSCAASGFTFSSFAMHWVRQAPGKGLEWISVIDTRGATYYADSVKGRFTISRDNAKNSLYLQMNSLRAEDTAVYYCARLGNFYYGMDVWGQGTTVTVSS
For the molecule B1, the “Proliferation of MCF7 cells” value in test [1] (19D12/15H12 0.00001024 nM + doxorubicin 0.00001024 ug/mL) amounted to 101144; in test [1] (19D12/15H12 0.00001024 nM + doxorubicin 0.0000512 ug/mL) it was 102670; in test [1] (19D12/15H12 0.00001024 nM + doxorubicin 0.000256 ug/mL), 100293; in test [1] (19D12/15H12 0.00001024 nM + doxorubicin 0.0064 ug/mL), 95276; in test [1] (19D12/15H12 0.00001024 nM + doxorubicin 0.8 ug/mL), 5132; in test [1] (19D12/15H12 0.00001024 nM + doxorubicin 4 ug/mL), 12606. Moreover, the “Proliferation of MCF7 cells” value in test [1] (19D12/15H12 0.00001024 nM + doxorubicin 20 ug/mL) turned out to be 7789; in test [1] (19D12/15H12 0.0000512 nM + doxorubicin 0.00001024 ug/mL), 111388; in test [1] (19D12/15H12 0.0000512 nM + doxorubicin 0.0000512 ug/mL), 106322; in test [1] (19D12/15H12 0.0000512 nM + doxorubicin 0.000256 ug/mL), 107406; in test [1] (19D12/15H12 0.0000512 nM + doxorubicin 0.0064 ug/mL) it was 93794; in test [1] (19D12/15H12 0.0000512 nM + doxorubicin 0.8 ug/mL), 5649. Further, the “Proliferation of MCF7 cells” value in test [1] (19D12/15H12 0.0000512 nM + doxorubicin 4 ug/mL) worked out at 11124; in test [1] (19D12/15H12 0.0000512 nM + doxorubicin 20 ug/mL), 6793; in test [1] (19D12/15H12 0.000256 nM + doxorubicin 0.00001024 ug/mL) it was 86861; in test [1] (19D12/15H12 0.000256 nM + doxorubicin 0.0000512 ug/mL), 76193; in test [1] (19D12/15H12 0.000256 nM + doxorubicin 0.000256 ug/mL) it was 74312; in test [1] (19D12/15H12 0.000256 nM + doxorubicin 0.0064 ug/mL), 70725. For the same molecule, the “Proliferation of MCF7 cells” value in test [1] (19D12/15H12 0.000256 nM + doxorubicin 0.8 ug/mL) is 5698; in test [1] (19D12/15H12 0.000256 nM + doxorubicin 4 ug/mL) it was 13174; in test [1] (19D12/15H12 0.000256 nM + doxorubicin 20 ug/mL), 6667; in test [1] (19D12/15H12 0.0064 nM + doxorubicin 0.00001024 ug/mL) it was 60936; in test [1] (19D12/15H12 0.0064 nM + doxorubicin 0.0000512 ug/mL), 60524; in test [1] (19D12/15H12 0.0064 nM + doxorubicin 0.000256 ug/mL), 61820. Moreover, the “Proliferation of MCF7 cells” value in test [1] (19D12/15H12 0.0064 nM + doxorubicin 0.0064 ug/mL) turned out to be 53583; in test [1] (19D12/15H12 0.0064 nM + doxorubicin 0.8 ug/mL), 4702; in test [1] (19D12/15H12 0.0064 nM + doxorubicin 4 ug/mL), 10648; in test [1] (19D12/15H12 0.0064 nM + doxorubicin 20 ug/mL) it was 7057; in test [1] (19D12/15H12 0.8 nM + doxorubicin 0.00001024 ug/mL) it was 70307; in test [1] (19D12/15H12 0.8 nM + doxorubicin 0.0000512 ug/mL), 64429. In addition, the “Proliferation of MCF7 cells” value is 60055 in test [1] (19D12/15H12 0.8 nM + doxorubicin 0.000256 ug/mL); 56538 in test [1] (19D12/15H12 0.8 nM + doxorubicin 0.0064 ug/mL); 4916 in test [1] (19D12/15H12 0.8 nM + doxorubicin 0.8 ug/mL); 11778 in test [1] (19D12/15H12 0.8 nM + doxorubicin 4 ug/mL); 7693 in test [1] (19D12/15H12 0.8 nM + doxorubicin 20 ug/mL); 61992 in test [1] (19D12/15H12 4 nM + doxorubicin 0.00001024 ug/mL). Also, the “Proliferation of MCF7 cells” value in test [1] (19D12/15H12 4 nM + doxorubicin 0.0000512 ug/mL) came to 57611; in test [1] (19D12/15H12 4 nM + doxorubicin 0.000256 ug/mL), 58980; in test [1] (19D12/15H12 4 nM + doxorubicin 0.0064 ug/mL), 53567; in test [1] (19D12/15H12 4 nM + doxorubicin 0.8 ug/mL), 4259; in test [1] (19D12/15H12 4 nM + doxorubicin 4 ug/mL), 12760; in test [1] (19D12/15H12 4 nM + doxorubicin 20 ug/mL), 8097. Besides, the “Proliferation of MCF7 cells” value was 59288 in test [1] (19D12/15H12 20 nM + doxorubicin 0.00001024 ug/mL); 60307 in test [1] (19D12/15H12 20 nM + doxorubicin 0.0000512 ug/mL); 62242 in test [1] (19D12/15H12 20 nM + doxorubicin 0.000256 ug/mL); 54983 in test [1] (19D12/15H12 20 nM + doxorubicin 0.0064 ug/mL); 5202 in test [1] (19D12/15H12 20 nM + doxorubicin 0.8 ug/mL); 10465 in test [1] (19D12/15H12 20 nM + doxorubicin 4 ug/mL). Moreover, the “Proliferation of MCF7 cells” value in test [1] (19D12/15H12 20 nM + doxorubicin 20 ug/mL) is 7489.
